Test results reported in US20250313621A1.

What was measured:
[1] = molecular target: Wildtype human PAR2 expressed on cells (human) (UniProt P55085); test: flow cytometry on HEK293F-humanPAR2 (3.0E+06 cells/mL, w/ NaN3), overnight at about 5 C, S/BG
[2] = molecular target: Cynomolgus PAR2 on BacMam-infected HEK293 cells (cynomolgus); test: flow cytometry on HEK293F-cynoPAR2 (3.0E+06 cells/mL, w/ NaN3), overnight at about 5 C, S/BG [continued]
[3] = molecular target: Wildtype human PAR2 expressed on cells (human) (UniProt P55085); test: cell-based or functional assay

Chain of Wildtype human PAR2 expressed on cells (human) (P55085 37-397 limits assumed): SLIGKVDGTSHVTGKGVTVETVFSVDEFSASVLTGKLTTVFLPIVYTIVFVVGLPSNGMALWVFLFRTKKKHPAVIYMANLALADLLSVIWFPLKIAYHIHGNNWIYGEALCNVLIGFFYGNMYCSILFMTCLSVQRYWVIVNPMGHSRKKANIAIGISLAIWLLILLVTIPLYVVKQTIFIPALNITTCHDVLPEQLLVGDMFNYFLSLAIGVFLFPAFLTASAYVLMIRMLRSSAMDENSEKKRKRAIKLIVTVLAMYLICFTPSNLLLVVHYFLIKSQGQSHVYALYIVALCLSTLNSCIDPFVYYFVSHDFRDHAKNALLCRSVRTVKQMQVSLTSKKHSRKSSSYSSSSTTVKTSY

B1: Benchmark 4 IgG (antibody, from another filing, V domains shown)
VH: EVQLVQSGAEVKKPGESLKISCKGSGYNFISHWIGWVRQMPGKGLEWMGMIYPGDSDTRYSPSFQGQVTISADKSINTAYLQWRSLKASDTAMYFCARHGGITGTTFYYDFGMDVWGQGTTVTVSS
VL: SYELTQPPSVSVSPGQTARITCSGDALPKQYASWYQQKPGQAPLLVIYRDSERPSGLPERFSGSSSGTTVTLTISGVQAEDEADYYCQSADSGGSYVFGTGTKVTVL
Question: Which results are given for B1?
Answer: EC50 (read off the curve) [1]: 1 nM; EC50 (read off the curve) [2]: 1 nM

B2: Benchmark 2 (antibody, from another filing, V domains shown)
VH: EVQLLESGGGLVQPGGSLRLSCAASGFTFSSYAMNWVRQAPGKGLEWVSTISYHGSHISYHDSVHHRFTISRDNSKNTLYLQMNSLRAEDTAVYYCARIHHDPMDVWGQGTLVTVSS
VL: SIELTQPPSVSVSPGQTASITCSGDNLGKKYVQWYQQKPGQSPVLVIYDDSNRPSGIPERFSGSNSGNTATLTISGTQAMDEADYYCQTWDGNPTTGETNVFGGGTKLTVL
Question: How did the % Max Inhibition, PAR1 peptide SFLLR-NH2 challenge, IP-One [3] turn out when B2 was run?
Answer: 3%

B3: Benchmark 3 IgG (antibody, from another filing, V domains shown)
VH: QVQLVESGGGVVQPGRSLRLSCVASGFTFSRYGIHWVRQAPGKGLEWVIVISYDGINKYYADSVKGRFTISRDNSKNTVYLQMNSLRAEDTAVYYCAKGDFWSGYFDYWGQGTLVTVSS
VL: DIVMTQTPLSSPVTLGQPASISCRSSQSLVHSDGNTYLSWLHQRPGQPPRLLIYKISNRFSGVPDRFSGSGAGTDFTLQISRVEAEDVGIYYCMQATQFPTFGGGTKVEIK
Question: B3 was tested. Which EC50 (read off the curve) [1] did it give?
Answer: 1 nM

Question: What about the EC50 (read off the curve) [2] of the same binder?
Answer: 2 nM
